The values below come from paper PMC10733448, “An aptamer and Au/Si CCA based SERS sensor for ultra-sensitive detection of Vimentin during EMT in gastric cancer”.

In this series the target is Vimentin (UniProt P08670 2-466). The series is described as follows: SERS strand-displacement sensor (signal decrease on Vimentin addition); competes with hybridized complementary strand S3 (5-FAM); binding buffer, salt, pH and temperature not given in the material; aptamer on Au/Si CCA, complementary strand on AuNCs, 6-MCH blocking. To be noted: label: none on the aptamer; reporter 5-FAM is on the complementary strand S3; before protein addition hybridized over its 3' 18 nt to SH-S3-5-FAM on Au nanocubes.
Vimentin, sequence (P08670 2-466): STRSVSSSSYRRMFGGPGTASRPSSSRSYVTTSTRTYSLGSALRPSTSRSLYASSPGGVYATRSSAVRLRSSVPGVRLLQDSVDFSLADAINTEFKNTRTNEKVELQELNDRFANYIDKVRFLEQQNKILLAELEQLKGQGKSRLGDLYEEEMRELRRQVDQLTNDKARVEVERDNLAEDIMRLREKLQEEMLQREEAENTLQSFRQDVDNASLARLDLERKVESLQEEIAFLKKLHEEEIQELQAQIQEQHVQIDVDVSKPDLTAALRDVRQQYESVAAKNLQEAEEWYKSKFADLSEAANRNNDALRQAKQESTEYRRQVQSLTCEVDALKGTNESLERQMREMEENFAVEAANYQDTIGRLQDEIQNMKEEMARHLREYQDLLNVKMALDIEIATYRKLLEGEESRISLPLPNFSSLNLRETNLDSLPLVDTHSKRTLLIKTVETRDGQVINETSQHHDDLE

On to TAGACCCAGCTGGTCCGGAAAATAAGATGTCACGGATCCTC (ssDNA, thiol (SH) printed at 5' end) [Vimentin aptamer], for which the binding result is given as “binds”.
